Broadly, the Kd is the free concentration of one partner at which half of the binding sites on the other are occupied at equilibrium, for simple one-to-one binding.

For experiment [1], the target named is extracellular domain of IGF-IR (human) (UniProt P08069). Kind of experiment: SPR (BIAcore 3000), Protocol 2, essentially as Fagerstam et al. On the technique in general: In SPR one partner is held on a chip, and binding of the other changes the refractive index at the surface.
For experiment [2] the target is unchanged. Kind of experiment: SPR (BIAcore 3000), Protocol 1: antibody captured on protein A, IGF-IR ECD injected.

B1: anti-IGF-IR antibody 2.13.2 (antibody, V domains shown)
VH: EVQLLESGGGLVQPGGSLRLSCTASGFTFSSYAMNWVRQAPGKGLEWVSAISGSGGTTFYADSVKGRFTISRDNSRTTLYLQMNSLRAEDTAVYYCAKDLGWSDSYYYYYGMDVWGQGTTVTVSS
VL: DIQMTQFPSSLSASVGDRVTITCRASQGIRNDLGWYQQKPGKAPKRLIYAASRLHRGVPSRFSGSGSGTEFTLTISSLQPEDFATYYCLQHNSYPCSFGQGTKLEIKR
On to B1, for which the Kd worked out at 1.53 nM in experiment [1] and 3.5 nM in experiment [2].

B2: anti-IGF-IR antibody 4.17.3 (antibody, human IgG2, V domains shown)
VH: PGLVKPSETLSLTCTVSGGSISSYYWSWIRQPPGKGLEWIGYIYYSGSTNYNPSLKSRVTISVDTSKNQFSLKLSSVTAADTAVYYCARTYSSSFYYYGMDVWGQGTTVTVSS
VL: GDRVTITCRASQSISTFLNWYQQKPGKAPKLLIHVASSLQGGVPSRFSGSGSGTDFTLTISSLQPEDFATYYCQQSYNAPLTFGGGTKVEIK
In experiment [2], B2 registered a dissociation constant Kd of 13 nM.

B3: anti-IGF-IR antibody 2.12.1 (antibody, V domains shown)
VH: QAQLVESGGGLVKPGGSLRLSCAASGFTFSDYYMSWIRQAPGKGLEWVSYISSSGSTRDYADSVKGRFTISRDNAKNSLYLQMNSLRAEDTAVYYCVRDGVETTFYYYYYGMDVWGQGTTVTVSS
VL: DIQMTQSPSSLSASVGDRVTFTCRASQDIRRDLGWYQQKPGKAPKRLIYAASRLQSGVPSRFSGSGSGTEFTLTISSLQPEDFATYYCLQHNNYPRTFGQGTEVEIIR
Molecule B3 gave a Kd in experiment [2] of 7.37 nM.

B4: anti-IGF-IR antibody 2.14.3 (antibody, human IgG2, V domains shown)
VH: GPGLVKPSETLSLTCTVSGGSISNYYWSWIRQPAGKGLEWIGRIYTSGSPNYNPSLKSRVTMSVDTSKNQFSLKLNSVTAADTAVYYCAVTIFGVVIIFDYWGQGTLVTVSS
VL: SSLSASVGDRVTFTCRASQDIRRDLGWYQQKPGKAPKRLIYAASRLQSGVPSRFSGSGSGTEFTLTISSLQPEDFATYYCLQHNNYPRTFGQGTEVEIIR
With B4, the dissociation constant (Kd) in experiment [2] was 0.641 nM.

The values above are taken from patent publication US20040086503A1.
